Assay results reported in patent publication US20180298401A1 (CORNELL UNIVERSITY, published 2018).
Blank lines part the entries; values can stand above or below the binder they belong to.

Columns and labels:
[1] = biological target: T1, Large subunit (LSU) of Synechococcus elongatus PCC7942 Rubisco (Synechococcus elongatus PCC7942, UniProt Q31NB3 1-472); test: native PAGE with Coomassie stain and immunoblots
T1 construct: also called cyanobacterial LSU; Se LSU

[2] = biological target: T2, Rubisco from the cyanobacterium Synechococcus elongatus PCC7942 (hexadecameric holoenzyme of eight LSU and … (Synechococcus elongatus PCC7942, UniProt Q31NB3 1-472; Q31NB2 1-111); test: quantitative immunoblots of SeLSM35 leaf homogenates against purified protein standards
T2 construct: also called Se7942 Rubisco; cyanobacterial Rubisco
Excerpt: SDS page, immunoblot and determination of CcmM35/Rubisco content. The crude leaf homogenates used in the carboxylase activity measurements were separated by SDS-PAGE using 4-20% polyacrylamide gradient gels (ThermoScientific, UK). For each sample, the same amount of protein, as determined by Bradford assay, was loaded onto the gel. After electrophoresis, the resolved proteins were transferred to a nitrocellulose membrane (Hybond-C Extra from GE Healthcare Life Sciences) using a western blot apparatus. The nitrocellulose membranes were immunoblotted using one of four primary polyclonal antibodies raised against: cyanobacterial (SePCC6301) Rubisco; tobaccoRubisco; the small subunit of tobacco Rubisco; and CcmM from Se PCC7942. The primary polyclonal antibody to detect CcmM35 was generated in rabbit with His-tagged CcmM58 protein purified from E. coli (Cambridge Research Biochemicals, UK) and used at a dilution of 1:500 in the immunoblots and from 1:500 to 1:2,000 for immunogold labelling, and was highly specific for CcmM (FIG. 2a). The primary antibodies were visualized by means of a secondary goat anti-rabbit peroxidase-conjugated antibody (Sigma). The absolute and relative content of Synechococcus Rubisco and CcmM35 in SeLSM35 leaves were determined using immunoblots with antibodies against CcmM and cyanobacterial Rubisco. […]

- binding result [1]: binds
B1: Small subunit (SSU) of Synechococcus elongatus PCC7942 Rubisco (enzyme, UniProt Q31NB2 1-111, looked up)
chain: MSMKTLPKERRFETFSYLPPLSDRQIAAQIEYMIEQGFHPLIEFNEHSNPEEFYWTMWKLPLFDCKSPQQVLDEVRECRSEYGDCYIRVAGFDNIKQCQTVSFIVHRPGRY
notes: also called cyanobacterial SSU; Se-rbcS product

- stoichiometry of CcmM35 per Rubisco holoenzyme [2]: ~4.5 CcmM35 per Rubisco holoenzyme
B2: CcmM35, internal carboxysomal protein of Synechococcus elongatus PCC7942 (other, UniProt Q03513-2 1-324, looked up)
chain: MSAYNGQGRLSSEVITQVRSLLNQGYRIGTEHADKRRFRTSSWQPCAPIQSTNERQVLSELENCLSEHEGEYVRLLGIDTNTRSRVFEALIQRPDGSVPESLGSQPVAVASGGGRQSSYASVSGNLSAEVVNKVRNLLAQGYRIGTEHADKRRFRTSSWQSCAPIQSSNERQVLAELENCLSEHEGEYVRLLGIDTASRSRVFEALIQDPQGPVGSAKAAAAPVSSATPSSHSYTSNGSSSSDVAGQVRGLLAQGYRISAEVADKRRFQTSSWQSLPALSGQSEATVLPALESILQEHKGKYVRLIGIDPAARRRVAELLIQKP
notes: domain: CcmM35; CcmM35 lacks the amino-terminal domain; Untagged as expressed in the SeLSM35 tobacco line; also called Se-ccmM35 product
